“Also recorded” adds a separate entry of the source. rhodamine = not defined here; BODIPY = not defined here
Assays:
[1] = tested on: untagged GFP/EGFP and mCherry; assay: Fluorescence microscopy, cells expressing untagged fluorescent proteins; assay type: cell-based, human
Procedure: (§1) Fluorescence microscopy was used to confirm that the VIP Y/Z tag set enabled selective fluorescent labeling of proteins (FIGS. 3A and 3B). CoilZ was expressed by fusion to a cell-surface localized variant of GFP (CoilZ-GFP; pDisplay vector). […] Labeling was rapid (<30 min), target-specific, and live-cell compatible. Homodimerization between a CoilZ probe peptide and CoilZ-GFP was not observed. Cells expressing untagged GFP were not labeled with the CoilY probe peptide. CoilY was also expressed fused to the cell surface localized GFP and visualized using a CoilZ-AF647 probe peptide (FIG. 3B). No homodimerization of CoilY was observed, and the labeling was specific.
(§2) It was next confirmed that the VIP Y/Z tag set could be used in two-target imaging in fixed cells (FIGS. 5B and 13). A combination of cell lines singly-transfected with mCherry, GFP, CoilY-mCherry, or CoilZ-GFP was used, as illustrated in FIG. 9. […] Then we labeled two tagged FPs in one sample using a mixed population of cells expressing either CoilY-mCherry or CoilZ-GFP.
(§3) The disclosed methods were tested in transfected human osteosarcoma cells (U-2 OS). A pDisplay vector was used to target CoilZ-EGFP and untagged EGFP to the cell surface. This construct includes a C-terminal fusion to the transmembrane domain of the platelet derived growth factor receptor. As expected, both CoilZ-EGFP and untagged EGFP localized to the cell surface, and green fluorescence was observed within 24 h of transfection. Then the cells were blocked with 6% BSA and 10% FBS for 30 minutes at 37° C. and then contacted with an AF647-conjugated CoilY probe (CoilY-AF647), 30 min at 4° C. Cells were fixed before imaging by confocal fluorescence microscopy. The probe peptides are membrane impermeant; only cell-surface EGFP was accessible to CoilY-AF647 for labeling. Colocalization of green fluorescent CoilZ-EGFP with CoilY-AF647 was observed.
The CoilY/CoilZ tag set is bidirectional—either CoilZ or CoilY can serve as the probe peptide. CoilY-EGFP was expressed on the surface of U2OS cells and labeled with CoilZ-AF647. […]

untagged EGFP-TM = assay: Flow cytometry of probe labeling, live U-2 OS cells expressing untagged EGFP-TM; assay type: cell-based, human; conditions: 500 nM probe
Procedure: The in vitro results were translated to living cells. Flow cytometry was used to evaluate protein labeling in live human osteosarcoma (U-2 OS) cells expressing CoilZ-EGFP-TM, CoilY-EGFP-TM, or untagged EGFP-TM (FIG. 11). Cells were treated with 500 nM AF647-conjugated probe peptide before analysis, and we gated for EGFP-expressing cells. […] Non-specific labeling of untagged EGFP-TM and homodimerization with CoilY-EGFP-TM were minimal for cells exposed to CoilY-AF647. Cells expressing CoilY-EGFP-TM were labeled with CoilZ-AF647, but with only a 4-fold enhancement.
Protein labeling was assessed as a function of CoilY-AF647 concentration (FIG. 25). Live cells expressing CoilZ-EGFP-TM or untagged EGFP-TM were treated with a range of CoilY-AF647 concentrations (50 nM to 1000 nM for 30 min at room temperature). […] Cells had 21- to 44-fold higher median fluorescence compared to cells expressing untagged protein. Treatment with 300 nM AF647-CoilY gave optimal labeling, with 98% of cells labeled and a 35-fold increase in AF647 fluorescence. Treatment with an excess of probe peptide (i.e., 1000 nM) enhanced the AF647 signal, but at the cost of a small increase in non-specific labeling.

CoilZ-EGFP [2] = assay: Fluorescence microscopy labeling of cell-surface CoilZ-GFP (CoilZ-EGFP); assay type: cell-based, human; conditions: fluorescence microscopy
Procedure: as §1, §2, §3
(§4) The CoilY/CoilZ tag set is also compatible with live-cell imaging. CoilZ-EGFP was contacted with CoilY-AF647 in live U2OS cells. […] Homodimerization was not observed for CoilY-EGFP incubated with CoilY-AF647. Non-specific labeling of untagged GFP was not observed (FIG. 26). Cells internalize labeled targets over time. CoilZ-GFP and CoilY-AF647 co-localization was observed on the surface and in endocytic vesicles due to rapid internalization, and AF647 signal accumulated inside cells during a 40 min. long incubation at room temperature (FIG. 12).
The VIPY/Z tag set can be used to label multiple protein targets simultaneously. Cells expressing CoilY-mCherry were combined with those expressing CoilZ-EGFP-pDisplay (FIG. 9). This mixed cell population, as well as unmixed CoilZ-GFP, CoilY-mCherry, and untagged controls, were plated for imaging. […] Fluorescence was detected by confocal fluorescence imaging. […]

CoilY-EGFP = assay: Fluorescence microscopy labeling of cell-surface CoilY-GFP (CoilY-EGFP); assay type: cell-based, human
Procedure: as §1
The CoilY/CoilZ tag set is bidirectional—either CoilZ or CoilY can serve as the probe peptide. CoilY-EGFP was expressed on the surface of U2OS cells and labeled with CoilZ-AF647. Protein labeling was rapid (<30 min) and specific; non-specific labeling of untagged EGFP was not observed. Homodimerization was not observed for either CoilZ-AF647 with CoilZ-EGFP or CoilY-AF647 with CoilY-EGFP (FIG. 3B).
as §4

CoilZ-EGFP [3] = assay: SDS-PAGE/PVDF membrane labeling of transfected HEK293FT lysates, CoilZ-EGFP; assay type: binding; conditions: cell lysates, SDS-PAGE, PVDF membrane
Procedure: The CoilY and CoilZ pair could be used to label two protein targets simultaneously. Transfected HEK293FT cell lysates from cells expressing mCherry, CoilY-mCherry, EGFP, or CoilZ-EGFP were resolved by SDS-PAGE and transferred to a PVDF membrane. The membrane was incubated sequentially with CoilZ-fluorescein and CoilY-rhodamine before imaging. GFP and mCherry fluorescence was not preserved due to SDS-PAGE protein denaturation.
(§5) A protein gel-based assay was optimized for analyzing VIP tags in vitro. Cell lysates were made from cells transfected with mCherry, CoilY-mCherry, GFP, or CoilZ-GFP, resolved by SDS-PAGE, and transferred to a membrane. GFP and mCherry fluorescence were not preserved in this experiment. The membrane was then contacted with CoilZ-fluorescein and CoilY-rhodamine before imaging. […] The probe peptides were specific for each tagged protein, and this single pair enabled specific and selective protein tagging of two distinct targets. In addition both the VIP E/R and VIP Y/Z tag sets could be used concurrently to label two recombinant proteins (DHFR and mCherry) without crosstalk (FIG. 23).

[4] = tested on: untagged mCherry and DHFR; assay: SDS-PAGE/PVDF membrane labeling, untagged proteins; assay type: binding; conditions: lysates and purified proteins, PVDF membrane
Procedure: Crude lysates (lys.) and purified proteins (serial dilutions) were resolved by SDS-PAGE. Lysates were prepared from HERK 293FT cells transfected with mCherry, CoilY-mCherry, DHFR, and CoilE-DHFR. The protein gel was transferred to a PVDF membrane and then incubated with CoilZ-Fluorescein and CoilR-rhodamine. After washing, the membrane was imaged to detect VIPER labeling of DHFR (red) and VIP Y/Z labeling of mCherry (green). Untagged proteins were not labeled by either CoilR-rhodamine or CoilZ-fluorescein.
as §5

[5] = target: coiled-coil heterodimer pairs; conditions: heterodimer pair, Table 2; cited from earlier work
untagged TfR1 = target: T1, untagged TfR1 (Homo sapiens, UniProt P02786); assay: CoilR probe labeling of CHO TRVb cells expressing untagged TfR1; assay type: cell-based; conditions: labeled at 4° C.
T1 construct: expressed in transfected cells; host or cells: CHO TRVb

TfR1-MiniE = assay: miniVIPER versus VIPER labeling of TfR1 in CHO TRVb cells; assay type: cell-based; conditions: Tf-AF488 and full length CoilR-Cy5
Procedure: FIG. 24 A and B are fluorescent micrographs comparing VIP E/R labeling with miniVIPER (MiniE and MiniR) labeling of TfR1. […] After labeling cells were imaged over time during a 30 min incubation at 37° C. Cells were imaged as confocal slices at 63× magnification. Transferrin-AF488 was false-colored green, CoilR-Cy5 was false-colored magenta, and nuclei were stained with Hoechst and false-colored blue. Individual channels are shown in FIG. 24B (blue, green, magenta) for the 5 minute timepoint. A Pearson's correlation analysis was used to compare fluorescence co-localization of CoilR-Cy5 with Transferrin-AF488. The p values are reported on the image and indicate that TfR1-miniE had better co-localization between Tf and CoilR labeling.
VIP E/R was edited by removing a heptad repeat, and changing key residues in the sequence to maximize affinity, improve dimer interface and create a smaller tag pair with more favorable charge balance for imaging in cells. MiniE (SEQ ID NO:10) and MiniR (SEQ ID NO:9) were created. TfR1 was tagged at the C-terminus with MiniE.

T1 sequence (P02786 whole entry): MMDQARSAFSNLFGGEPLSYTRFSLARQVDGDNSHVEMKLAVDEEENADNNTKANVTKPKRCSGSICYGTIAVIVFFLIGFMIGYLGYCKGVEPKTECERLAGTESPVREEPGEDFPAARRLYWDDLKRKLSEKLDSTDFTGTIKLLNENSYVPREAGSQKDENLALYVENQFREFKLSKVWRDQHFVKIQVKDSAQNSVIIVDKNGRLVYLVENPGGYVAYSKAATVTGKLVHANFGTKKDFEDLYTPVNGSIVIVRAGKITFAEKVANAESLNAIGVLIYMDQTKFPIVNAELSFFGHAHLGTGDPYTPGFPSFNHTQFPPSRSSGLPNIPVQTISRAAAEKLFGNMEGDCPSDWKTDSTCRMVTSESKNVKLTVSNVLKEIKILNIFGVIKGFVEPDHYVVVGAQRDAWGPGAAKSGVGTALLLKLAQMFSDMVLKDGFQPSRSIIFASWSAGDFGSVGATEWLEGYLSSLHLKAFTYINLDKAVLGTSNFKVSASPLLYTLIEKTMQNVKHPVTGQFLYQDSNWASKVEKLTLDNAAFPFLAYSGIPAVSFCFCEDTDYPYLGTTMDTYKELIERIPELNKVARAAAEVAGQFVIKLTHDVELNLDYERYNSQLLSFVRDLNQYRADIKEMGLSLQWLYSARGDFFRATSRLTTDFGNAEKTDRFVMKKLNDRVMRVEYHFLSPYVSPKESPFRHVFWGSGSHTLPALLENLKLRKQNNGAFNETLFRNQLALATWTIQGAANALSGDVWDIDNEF

B1: CoilY probe peptide: CoilY with linker, reactive cysteine and His6 tag, SEQ ID NO: 13 (peptide)
chain: MGSSNTVKELKNYIQELEERNAELKNLKEHLKFAKAELEFELAAHKFEGGGAAACLGKLAAALEHHHHHH
[1]
  non-specific labeling of untagged fluorescent proteins: not labeled

B2: CoilZ-AF647: CoilZ probe peptide conjugated to AF647 (conjugate)
peptide: MGSSQKVAQLKNRVAYKLKENAKLENIVARLENDNANLEKDIANLEKDIANLERDVARGGGAAACLGKLAAALEHHHHHH
Untagged EGFP-TM
  non-specific labeling of untagged EGFP-TM: slightly higher
CoilZ-EGFP [2]
  homodimerization / cross-reactivity of CoilZ probe with CoilZ-GFP/EGFP: not observed
CoilY-EGFP; CoilY-EGFP on surface of U2OS cells
  labeling time (rapid): < 30 min
CoilY-EGFP; fluorescence microscopy
  labeling of CoilY-GFP/EGFP (specificity): specific
[1]
  non-specific labeling of untagged fluorescent proteins: not observed

B3: CoilZ probe peptide: CoilZ with linker, reactive cysteine and His6 tag, SEQ ID NO: 14 (peptide)
chain: B2 peptide
CoilZ-EGFP [2]
  homodimerization / cross-reactivity of CoilZ probe with CoilZ-GFP/EGFP: not observed

B4: CoilY-rhodamine: red fluorescent CoilY probe peptide, maleimide conjugate (conjugate)
peptide: MGSSNTVKELKNYIQELEERNAELKNLKEHLKFAKAELEFELAAHKFEGGGAAAC(rhodamine)LGKLAAALEHHHHHH
modifications: reading uncertain
notes: red fluorescent CoilY probe peptide, maleimide conjugate
CoilZ-EGFP [3]
  probe peptide binding to CoilZ-EGFP on membrane: specific coiled-coil heterodimer formation could be detected; also recorded: Probe peptide binding was detected

B5: CoilR-rhodamine: CoilR probe peptide conjugated to rhodamine (conjugate)
peptide: MGGSLEIRAAFLRQRNTALRTEVAELEQEVQRLENEVSQYETRYGPLGGGAAALGC(rhodamine)LAAALEHHHHHH
modifications: reading uncertain
[4]
  labeling of untagged proteins on membrane: not labeled

B6: VIP 1/2: heterodimeric tag pair of Coil1 and Coil2 (peptide)
chain 1: NLVAQLENEVASLENENETLKKKNLHKKDLIAYLEKEIANLRKKIEE
chain 2: ARNAYLRKKIARLKKDNLQLERDEQNLEKIIANLRDEIARLENEVASHEQ
[5]
  Kd: < 10 nM

B7: CoilR-BODIPY: CoilR probe peptide conjugated to BODIPY (conjugate)
peptide: MGGSLEIRAAFLRQRNTALRTEVAELEQEVQRLENEVSQYETRYGPLGGGAAALGC(BODIPY)LAAALEHHHHHH
modifications: reading uncertain
Untagged TfR1
  labeling of cells expressing untagged TfR1: showed now labeling

B8: VIP 3/4: heterodimeric tag pair of Coil3 and Coil4 (peptide)
chain 1: NEVTTLENDAAFIENENAYLEKEIARLRKEKAALRNRLAHKK
chain 2: QKVAELKNRVAVKLNRNEQLKNKVEELKNRNAYLKNELATLENEVARLENDVAE
[5]
  Kd: < 30 nM

B9: miniVIPER: shorter, better charge balanced VIP E/R pair of MiniE and MiniR (peptide)
chain 1: LEIRVAFLRQRNTALRTEVAELEQEVQRLENRYGPL
chain 2: LEIEAAFLERENTALETRVAELRQRVQRLRNEYGPL
TfR1-MiniE
  Tf-AF488 signal compared to VIPER: brighter Tf-A488 signal
  colocalization between Tf-AF488 and CoilR-Cy5 compared to VIPER: improved colocalization

Reference: US11360100B2, “Methods and compositions useful in detecting proteins” (OREGON HEALTH & SCIENCE UNIVERSITY, priority 2016, dated 2022)
